Test system: SNAPtide (FITC/DABCYL), List Biological Laboratories product #521

For “BoNT/A complex (botulinum neurotoxin type A with neurotoxin associated proteins, Hall A strain)”, the “Km of SNAPtide conversion, non-bead based assay (free toxin)” value was “non-bead based assay: typical Km=0.7 µM” and the “Km of the immobilized enzyme against the free enzyme” value was 3.2-fold lower than for the free enzyme.
